For test [1], the target named is T1, PD-1 (soluble, biotinylated, on sensors or coated on plates) (human, UniProt Q15116 25-167, biotinylated (avi tag, Avidity's biotinylation kit) in the Octet assays). In words: ELISA; constant antigen coating. (In general: ELISA stands for enzyme-linked immunosorbent assay.)
Test [2] concerns the target T1, PD-1 (soluble, biotinylated, on sensors …). In words: ELISA; variable antigen coating.

T1 sequence (Q15116 25-167): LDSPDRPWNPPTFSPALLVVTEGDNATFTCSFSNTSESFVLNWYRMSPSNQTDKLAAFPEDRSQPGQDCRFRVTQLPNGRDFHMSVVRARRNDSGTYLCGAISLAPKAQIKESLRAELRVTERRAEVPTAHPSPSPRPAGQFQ

B1: P4-B3 IgG1 wild type monomer (antibody, V domains shown)
VH: QVQLVQSGGGLVQPGRSLRLSCAASGFTFDDYAMHWVRQAPGKGLEWVSGISWNSGSIGYADSVKGRFTVSRDNAKNSLYLQMNSLRAEDTAVYYCASDYGDKYYYYGMDVWGKGTTVTVSS
VL: QPGLTQPPSASGTPGQRVTISCSGSSSNIGSNTVNWYQQFPGKAPKLLIFNDNQRPSGVPDRFSASKSGTSASLAISGLQSEDEADYYCAAWDGGLNGRGVFGGGTKLTVLG
Broadly, the EC50 is the concentration giving half of the maximal effect. A low value points to higher potency in that assay. For the molecule B1, the EC50 in test [1] is 0.0407 µg/mL; in test [2], 0.514 µg/mL.
